Numbering of substitutions follows the chain as printed.
B1: 6465-H1K2-canIgGB (antibody, V domains shown)
VH: EVQLVESGGDLVKPGGSLRLSCVASGYSFTNYYLYWVRQAPGKGLEWVGELNPRNGGTNLNAKFKTRFTISVDKAKNMAYLQMNSLRAEDTAVYYCTRGGTTVVVRDVMDFWGQGTLVTVSS
VL: DIVLTQTPLSLSVSPGEPASISCRASESVDSYGNSFMHWYRQKPGQSPQLLIYRASNLESGVPDRFSGSGSRTDFTLRISRVEADDAGVYYCQQSNEDPYTFGQGTKLEIKR
B2: 6465-H1K3-canIgGB (antibody, V domains shown)
VH: B1 VH
VL: B1 VL with L4M, R72G
B3: 6465-H2K3-canIgGB (antibody, V domains shown)
VH: B1 VH with E46Q, V48L, M78T
VL: B1 VL with L4M, R72G
B4: 6465-H2K2-canIgGB (antibody, V domains shown)
VH: B1 VH with E46Q, V48L, M78T
VL: B1 VL
B5: 6465-H3K2-canIgGB (antibody, V domains shown)
VH: B1 VH with G49A, V72R, K74N
VL: B1 VL

molecular target: His-tagged canine IL-31 (interleukin 31) recombinant protein (canine); assay: BLI (Gator), biotinylated antibody on streptavidin probe, canine IL-31 as analyte

Kd [nM] | koff [s⁻¹] | kon [M⁻¹ s⁻¹] | Binder
6.54 | 0.00088 | 135000 | B1
2.5 | 0.00145 | 579000 | B2
4.99 | 0.001 | 201000 | B3
17.8 | 0.00166 | 93200 | B4
6.95 | 0.00361 | 519000 | B5

molecular target: His-tagged canine IL-31 (interleukin 31) recombinant protein (canine); assay: cell-based or functional assay

pSTAT IC50 (µg/mL) | Binder
7.9 | B1
7.4 | B2
7.6 | B3
7.3 | B4
8.2 | B5

Reference: patent EP4745156A1
